Source: paper PMC8126837 (2021)
Changes are numbered by the printed parent chain. Where two headings read alike, the source gives them in different places.

How the values were obtained:
[1] = target: T1, SARS-CoV-2 receptor-binding domain (RBD), wild type (SARS-CoV-2, UniProt P0DTC2 331-527); test: BLI
[2] = target: T1, SARS-CoV-2 receptor-binding domain …; test: BLI; remark: listed apart in the source
[3] = target: T2, SARS-CoV-2 spike (recombinant, used in bio-layer interferometry) (SARS-CoV-2, UniProt P0DTC2); test: BLI
[4] = target: T1, SARS-CoV-2 receptor-binding domain …; test: BLI; remark: listed apart in the source
[5] = target: T2, SARS-CoV-2 spike (recombinant, used in …); test: BLI; remark: listed apart in the source
[6] = target: T1, SARS-CoV-2 receptor-binding domain …; test: BLI; remark: listed apart in the source
SARS-CoV S1 subunit = SARS-CoV S1 subunit (SARS-CoV, UniProt P59594 14-667)

B1: WNb 36 (VHH)
VHH: QVQLQESGGGLVQPGGSLRLSCAVSGFTLDYYAIGWFRQAPGKEREGVSCISNSGGNTKYADSVKGRFTTSVDNAQNTVYLLMNSLEPEDTAVYYCAAIAATYYSGTYYYQCPHYGMDYWGKGTQVTVSS
[1]
  koff: 0.000127 s⁻¹
[2]
  Kd: 430 pM

B2: WNbFc 36 (Fc fusion)
chain: B1 VHH
SARS2 S1
  EC50: 630 pM
  IC50: 320 pM
[3]
  koff: < 1e-06 s⁻¹
[4]
  koff: 0.000202 s⁻¹
[5]
  Kd: < 10 pM
[6]
  Kd: 610 pM
[2]
  Kd: 360 pM

B3: WNb 41 (VHH)
VHH: QVQLQESGGGLVQPGGSLRLSCAVSGFTLDYYAIGWFRQAPGKEREGVSCISSSGGSTNYADSVKGRFTISRDNAKNTVYLQMNGLKPEDTAVYYCAAIAATYYSGSYYYQCPHDGMDYWGKGTQVTVSS
[1]
  koff: 0.000104 s⁻¹
[2]
  Kd: 550 pM

B4: WNbFc 2 (Fc fusion)
chain: B3 VHH with S57N, N59K, I70A, V79F, G85S, Y110F
SARS2 S1
  EC50: 1170 pM
  IC50: 660 pM
[3]
  koff: < 1e-06 s⁻¹
[4]
  koff: 0.000158 s⁻¹
[5]
  Kd: < 10 pM
[6]
  Kd: 590 pM

B5: WNb 67 (VHH)
VHH: B3 VHH with K76T, G85S, S105G, D115Y
[1]
  koff: 0.000212 s⁻¹
[2]
  Kd: 610 pM

B6: WNb 2 (VHH)
VHH: B3 VHH with S57N, N59K, I70A, V79F, G85S, Y110F
[1]
  koff: 7.34e-05 s⁻¹
[2]
  Kd: 360 pM

B7: WNb 23 (VHH)
VHH: QVQLQESGGGLVQPGGSLRLSCAASGFTFKDYAMAWARQVPGKGLEWVSGIYSDGNTYYADSVKGRFTISRDNAKNTVYLRMNSLKPEDTAVYYCATERHPQGAADFGSWGQGTQVTVSS
[1]
  koff: 0.00245 s⁻¹
[2]
  Kd: 9030 pM

B8: WNb 7 (VHH)
VHH: QVQLQESGGGLVQPGGSLRLSCAAPGFTFSSYAMGWFRQVPGKGLEWVSGIYSDGSTYYADSVKGRFTISRDNAKNTVYLQMNSLKPEDTAVYYCAKDRLEGSSWPERDFGSWGQGTQVTVSS
[1]
  koff: 3.19e-05 s⁻¹
[2]
  Kd: 260 pM

B9: WNbFc 15 (Fc fusion)
chain: B8 VHH with P25S, A33L, S56G, K97T, L100M
SARS2 S1
  EC50: 1600 pM
  IC50: 1070 pM
SARS-CoV S1 subunit
  EC50: 1690 pM
[3]
  koff: < 1e-06 s⁻¹
[4]
  koff: 0.000128 s⁻¹
[5]
  Kd: < 10 pM
[6]
  Kd: 440 pM
[2]
  Kd: 250 pM

B10: WNb 15 (VHH)
VHH: B8 VHH with P25S, A33L, S56G, K97T, L100M
[1]
  koff: 3.05e-05 s⁻¹
[2]
  Kd: 140 pM

B11: WNb 50 (VHH)
VHH: B8 VHH with P25S, K97A, L100M, E101A, S104R
[1]
  koff: 0.00013 s⁻¹
[2]
  Kd: 630 pM

B12: WNbFc 7 (Fc fusion)
chain: B8 VHH
SARS2 S1
  EC50: 460 pM
  IC50: 450 pM
SARS-CoV S1 subunit
  EC50: 1120 pM
[3]
  koff: < 1e-06 s⁻¹
[4]
  koff: 0.000191 s⁻¹
[5]
  Kd: < 10 pM
[6]
  Kd: 700 pM
[2]
  Kd: 350 pM

B13: WNb 10 (VHH)
VHH: B8 VHH with P25S, S30R, S31R, A33L, F37A, L100M, E101D, S104T
[1]
  koff: 9.64e-05 s⁻¹
[2]
  Kd: 680 pM

B14: WNb 53 (VHH)
VHH: B8 VHH with P25S, A33L, F37A, S49A, T68I, L100M, G102D, S104T
[1]
  koff: 0.00013 s⁻¹
[2]
  Kd: 640 pM

B15: WNb 19 (VHH)
VHH: QVQLQESGGGLVQPGGSLRLSCAASGSMFSINVMGWYRQASGKQRELVAGITRDGATNYSDSVKGRFTISGDNAKNTVYLQMNSLKPEDTAVYYCNTNVDSVWGSRIDYFGQGTQVTVSS
[1]
  koff: 0.000107 s⁻¹
[2]
  Kd: 460 pM
